The assay deals with AAB1/B2Fc. In words: SPR (BIAcore), Fab immobilized on Pioneer F1 chip, AAB1/B2Fc as analyte. On the technique in general: In SPR one partner is held on a chip, and binding of the other changes the refractive index at the surface.

B1: Fab fragment F200 (Fab, V domains shown)
VH: QVQLKESGPGLVAPSQSLSITCTISGFSLTDYGVHWVRQPPGKGLEWLVVIWSDGSSTYNSALKSRMTIRKDNSKSQVFLIMNSLQTDDSAMYYCARHGTYYGMTTTGDALDYWGQGTSVTVSS
VL: QIVLTQSPAIMSASLGERVTMTCTASSSVSSNYLHWYQQKPGSAPNLWIYSTSNLASGVPARFSGSGSGTSYSLTISSMEAEDAATYYCHQYLRSPPTFGGGTKLEIKR
As to B1, the Kd (in general, the constant that tells how readily two partners part at equilibrium) worked out at 0.332 nM. That is a sub-nanomolar value.
